Key:
[1] = target: T1, human Ang2 protein (R&D Systems, 623-AN-01M/CF; 623-AN/CF) (human, UniProt O15123 19-496); test: ELISA
T1 chain: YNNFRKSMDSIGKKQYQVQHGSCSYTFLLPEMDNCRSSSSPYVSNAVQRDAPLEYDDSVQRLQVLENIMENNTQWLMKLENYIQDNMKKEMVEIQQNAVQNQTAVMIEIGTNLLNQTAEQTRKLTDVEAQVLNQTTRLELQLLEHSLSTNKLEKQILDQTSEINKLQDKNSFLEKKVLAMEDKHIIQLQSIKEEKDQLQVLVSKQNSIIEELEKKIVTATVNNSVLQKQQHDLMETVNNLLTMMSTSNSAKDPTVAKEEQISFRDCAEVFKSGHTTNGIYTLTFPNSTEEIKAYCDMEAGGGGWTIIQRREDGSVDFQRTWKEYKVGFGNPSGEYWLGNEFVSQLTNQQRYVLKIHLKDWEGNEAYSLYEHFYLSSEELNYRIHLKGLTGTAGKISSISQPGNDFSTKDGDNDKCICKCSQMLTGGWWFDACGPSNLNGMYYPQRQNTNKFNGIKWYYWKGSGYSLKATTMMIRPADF

[2] = target: T2, membrane-anchored human Ang2 protein expressed on CHO-K1 cells (human, UniProt O15123 19-496); test: FACS
T2 chain: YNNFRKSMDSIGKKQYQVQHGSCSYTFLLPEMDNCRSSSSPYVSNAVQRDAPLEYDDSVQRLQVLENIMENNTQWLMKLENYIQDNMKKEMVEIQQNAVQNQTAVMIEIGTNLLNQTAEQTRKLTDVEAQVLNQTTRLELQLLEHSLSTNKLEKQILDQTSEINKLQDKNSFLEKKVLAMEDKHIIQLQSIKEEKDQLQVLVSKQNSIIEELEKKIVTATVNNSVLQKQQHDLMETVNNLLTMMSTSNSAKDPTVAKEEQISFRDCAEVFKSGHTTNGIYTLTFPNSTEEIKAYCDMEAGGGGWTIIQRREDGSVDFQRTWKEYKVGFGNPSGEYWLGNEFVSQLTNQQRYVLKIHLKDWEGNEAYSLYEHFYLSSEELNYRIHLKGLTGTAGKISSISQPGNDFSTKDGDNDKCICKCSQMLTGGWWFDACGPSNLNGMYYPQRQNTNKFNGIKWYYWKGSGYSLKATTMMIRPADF

[3] = target: T3, membrane-anchored cyno Ang2 protein expressed on CHO-K1 cells (cyno, UniProt A0A2K5VNX6 19-496); test: FACS
T3 chain: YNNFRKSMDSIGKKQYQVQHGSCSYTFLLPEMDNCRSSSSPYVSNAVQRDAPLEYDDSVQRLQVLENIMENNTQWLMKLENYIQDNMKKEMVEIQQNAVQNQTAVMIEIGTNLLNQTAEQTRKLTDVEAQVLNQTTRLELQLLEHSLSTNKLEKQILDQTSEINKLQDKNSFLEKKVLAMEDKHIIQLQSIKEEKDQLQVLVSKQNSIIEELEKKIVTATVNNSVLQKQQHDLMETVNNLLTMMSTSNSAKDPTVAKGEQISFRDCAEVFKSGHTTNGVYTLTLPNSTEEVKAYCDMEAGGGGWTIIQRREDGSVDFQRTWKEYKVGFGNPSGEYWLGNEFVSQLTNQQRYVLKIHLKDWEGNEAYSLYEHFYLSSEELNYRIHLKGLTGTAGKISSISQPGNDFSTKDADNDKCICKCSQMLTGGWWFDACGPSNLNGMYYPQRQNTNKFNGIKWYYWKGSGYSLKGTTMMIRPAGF

[4] = target: T4, human Ang2 protein (R&D Systems, 623-AN-01M/CF; 623-AN/CF) (human, UniProt O15123 19-496); test: indirect ELISA, human Ang2 coated at 0.5 µg/ml
T4 construct: Bought recombinant protein; also called Ang2 proteins; angiopoietin-2
T4 sequence (looked up): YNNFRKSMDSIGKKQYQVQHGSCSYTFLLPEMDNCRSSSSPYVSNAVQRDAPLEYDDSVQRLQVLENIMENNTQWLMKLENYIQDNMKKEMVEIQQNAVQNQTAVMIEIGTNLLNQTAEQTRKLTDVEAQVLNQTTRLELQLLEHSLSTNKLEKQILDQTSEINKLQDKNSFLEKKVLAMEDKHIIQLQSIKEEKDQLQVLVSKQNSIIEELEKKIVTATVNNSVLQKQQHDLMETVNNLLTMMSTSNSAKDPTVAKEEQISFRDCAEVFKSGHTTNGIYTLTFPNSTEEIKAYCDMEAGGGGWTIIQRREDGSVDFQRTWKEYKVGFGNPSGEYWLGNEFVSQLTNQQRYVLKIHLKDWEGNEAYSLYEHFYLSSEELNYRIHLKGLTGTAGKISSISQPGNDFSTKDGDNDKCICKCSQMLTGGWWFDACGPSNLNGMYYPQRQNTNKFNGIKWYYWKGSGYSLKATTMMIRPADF
Protocol: The antibodies were tested for their binding activities to Ang2 in an indirect ELISA. Briefly, 100 μl of 0.5 μg/ml human or mouse Ang2 proteins (R&D Systems; 623-AN-01M/CF for human Ang2, 7186-AN-025/CF for mouse Ang2) were pre-coated onto ELISA plates overnight at 4° C. On the next day, the plates were incubated with […] diluted primary antibodies, with initial concentration at 1 μg/ml. The plates were added with HRP-conjugated goat anti-mouse IgG (H+L) and then TMB for chromogenic reaction. The antibody-antigen binding curves were generated with optical density readings at 450 nm. Raw data was plotted using GraphPad Prism v6.02 software with four parameters, and best-fit values program was used to analyze the EC₅₀.

Row | Binder | EC50 [1] | EC50 [2] | EC50 [3] | binding result [4]
1 | 33A3E2 (antibody, V domains shown) VH: EVKLVESGGGLVQPGGSRKLSCAASGFTFSDYGMVWVRQAPGKGLEWVAYIGSGRSTIYYADTVKGRFTISRDNPKNTLFLQMSSLRSEDTAMYYCAREDNGYSYAMDYWGQGTSVTVSS VL: DIQMTQSPASQSASLGESVTITCLTSQTIGTWLAWYQQKPGKSPQLLIYAATSLADGVPSRFSGSGSGTKFSFKISSLQAEDFVSYYCQQLYSIPLTFGAGTKLELK | 5.59 ng/mL |  |  | 
2 | 42C3A4 (antibody, V domains shown, Hybridoma antibody purified with Protein-A beads) VH: EVKLEESGGGLVQPGGSMKLSCVASGITFSNYWMDWVRQSPEKGLEWVAEIRLKSNNYATHYAESVKGRFTISRDDSKNSVYLQMNNLRAEDTGIYYCTRGAPLFGGYYKGVYFDYWGQGTTLTVSS VL: SFVMTQTPKSLLASAGDRVTITCQASQSVSNEVAWYQQKPGQSPKLLIYYASSRYTGVPDRFAGSGYGTDFTFTISTVQAEDLAVYFCQQDYNSPYTFGGGTKLEIK | 11.4 ng/mL | 0.155 nM | 8.13 nM | binds
3 | 49E4C2 (antibody, V domains shown, Hybridoma antibody purified with Protein-A beads) VH: EVKLEESGGGLVQPGGSMKLSCVASGITFSNYWMDWVRQSPEKGLEWVAEIRLKSNNYATHYAESVKGRFTISRDDSKSSVYLQMNNLRAEDTGIYYCTRGAPLFDGYYKGVYFDYWGQGTTLTVSS VL: STVMTQTPKSLLASAGDRVAITCKASQSVSNEVAWYQQKPGLSPKLLIYYASNRYTGVPDRFTGSGYGTDFTFTISTVQAEDLAVYFCQQDYNSPYTFGGGTKLEIK | 11 ng/mL | 0.14 nM | 29.4 nM | binds
4 | 15B4C6 (antibody, V domains shown) VH: QVQLKESGPGLVAPSQSLSITCTVSGFSLNGYGVNWVRQPPGKGLEWLGLIWNNGSTDYNSALKSRLTISKDNSKSLVFLKMNSLQTDDTARYYCARDPLYLLRGAMDYWGQGTSVTVSS VL: DIVLTQSPASLTVSLGQRATISCRASKSVSSSGYNFIYWYQQKPGQPPKLLIYLASNLESGVPARFSGSGSGTDFTLNIHPVEEEDAATYYCQHSRDLPLTFGAGTKLELK | 11.2 ng/mL |  |  | 
5 | 15H10D12 (antibody, V domains shown) VH: DVQLQESGPGLVKPSQSLSLTCTVTGYSITSDYAWNWIRQFPGNRLEWMGYINYSGSTDYNPSLKSRISITRDTSKNQFFLQLNSVTTEDTATYYCARGVRGDMDYWGQGTSVTVSS VL: SIVMTQTPKFLLVSAGDRVTITCKASQSVSNDVAWYQQKPGQSPKLLIYYASNRYTGVPDRFTGSGYGTDFTFTISTVQADDLAVYFCQQDYSSPFTFGSGTKLEIK | 9.28 ng/mL |  |  | 
6 | 50H8E5C5 (antibody, V domains shown) VH: EVQLHQSGPELVKPGASVKMSCKASGYTFTNYYMHWVKQSHGKSIEWIGYIYPNNGDTNYNQKFKGKATLTVDKSSSTAYMELRSLTSEDSAVYSCAVVSYSNYVAGAMDYWGQGTSVTVSS VL: SIVMTQTPKFLLVSAGDRVTITCKASQSVSNDVAWYQQKPGQSPKLLIYFASNRYTGVPDRFTGSGYGTDFTFTISTVQAEDLAVYFCQQDYSSPYTFGGGTKLEIK | 66.2 ng/mL |  |  | 
7 | 17F3E8 (antibody, V domains shown) VH: EVQLHQSGPELVKPGASVKMSCKASGYTFTNYYIHWVKQSHGKTIEWIGYIHPNNGDTSYNQKFKDKATLTVDKSSSTAYMDLRSLTSEDSAVYYCSVVSYSHYVAGALDNWGQGTSVTVSS VL: SIVMTQTPKFLLVSAGDRVTITCKASQSVSNDVAWYQQKPGQSPKLLIYFASNRYTGVPDRFTGSGYGTDFTFTISTVQAEDLAVYFCQQDYSSPYTFGGGTKLEIK | 12.2 ng/mL |  |  | 
8 | 31E2D4 (antibody, V domains shown) VH: QIQLVQSGPELKKPGETVKISCKASGYTLTNYGMNWVKQAPGKGLKWMGWINSYSGVPTYADDFKGRFAFSLETSASTAYLQINNLKNEDTATYFCARGENNYYGGSYDWGQGTTLTVSS VL: SIVMTQTPKFLLVSAGDRVTITCKASQSVSNDVAWYQQKPGQSPKLLIYYASNRYTGVPDRFTGSGYGTDFTFTISTVQAEDLAVYFCQQDYSSPLTFGAGTKLELR | 6.6 ng/mL |  |  | 
9 | 27H11B5 (antibody, V domains shown) VH: DVQLQESGPGLVKPSQSLSLTCTVTGYSITSDYAWNWIRQFPGNKLEWMGYISYSGSTSYNPSLKSRISITRDTSKNQFFLQLNSVTTEDTATYYCARCVYGNYVGAMDYWGQGTSVTVSS VL: SIVMTQTPKFLLVSAGDRVTITCKASQSVTNDVAWYQQKPGQSPKLLIYYASNRYTGVPDRFTGSGYGTDFTFTISTVQTEDLAVYFCQQDYSSPLTFGAGTKLELK | 9.97 ng/mL |  |  | 
10 | 25C5D6F3 (antibody, V domains shown) VH: EVNLVESGGGLVQPGGSLRLSCATSGFTFSDFYMEWVRQPPGKRLEWIAASRNKANDYTTEYSASVKGRFIVSRDTSQSILYLQMNALRAEDTAIYYCTRGSYTNYTWFAYWGQGTLVTVSA VL: SIVMTQTPKFLLVSAGDRVTITCKASQSVSNDVAWYQQKPGQSPKLLIYFASNRYTGVPDRFTGSGYGTDFTFTISTVQAEDLAVYFCQQDYSSPYTFGGGTKLEIK | 17.6 ng/mL |  |  | 
11 | 49B8G4 (antibody, V domains shown) VH: EVKLVESGGGLVQPGGSRKLSCAASGFTFSDYGMVWVRQAPGKGLEWIAYIGSGRNTIYYADTVKGRFTISRDNPKNTLFLQMSSLRSEDTAMYYCAREDNGYSYAMDYWGQGTSVTVSS VL: DIQMTQSPASQSASLGESVTVTCLASQTIGTWLAWYQQKPGKSPQLLIYAATSLADGVPSRFSGSGSGTKFSFKISSLQAEDFGSYYCQQLYSIPLTFGVGTKLELK | 4.57 ng/mL |  |  | 
12 | 39C1C4 (antibody, V domains shown) VH: EVKLVESGGGLVQPGGSRKLSCAASGFTFSDYGMVWVRQAPGKGLEWVAYIGSGRNTIYYADTVKGRFTISRDNPKNTLFLQMSSLRSEDTAMYYCVREDNGYSYAMDYWGQGTSVTVSS VL: DIQMTQSPASQSASLGESVTITCLASQTIGTWLAWYQQKPGKSPQLLIYAATSLADGVPSRFSGSGSGTKFSFKISSLQAEDFVSYYCQQLYSIPLTFGAGTKLELK | 4.47 ng/mL |  |  | 
13 | 7F10B2 (antibody, V domains shown) VH: EVQLQQSGPELVKPGSSVKISCKTSGYTFTDYNMDWVKQSHGKSLEWIGTINPKNGETSDNQKFKAKATLTVDKSSSTAYMELRSLTSEDSAVYYCAKNVDYSNYLFFPMDYWGQGTSVTVSS VL: SIVMTQTPKFLLVSAGDRVTITCKASQSVSNDVAWYQQKPGQSPKLLIYYASNRFTGVPDRFTGSGYGTDFTFTITTVQAEDLAVYFCQQDYSSRTFGGGTKLEIK | 4.62 ng/mL |  |  | 
14 | 45C5A1 (antibody, V domains shown) VH: EVKLVESGGGLVQPGGSLKLSCAASGFTFSNYTMSWVRQTPEKRLELVAEISNSDGSAYYPDTVKGRFTISRDNAKKTLYLQMSSLKSEDTAMYYCARHGGLRVYYAIDYWGQGTSVTVSS VL: DIQMTQSPASQSASLGESVTITCLASQTIGPWLAWYQQKPGKSPQLLIYAATSLADGVPSRFSGSGSGTKFSFKISSLQAEDFVSYYCQQLYSDPLYTFGGGTKLEMK | 7.03 ng/mL |  |  | 
